# In the supplement of paper PMC11246515:
# ± gives the standard deviation of the averaged measurements.
# Experiment: total protein half-life in vivo (active degradation + dilution); higher = more stable protein
# [1] = E. coli NCM3722 delta-clpP delta-lon delta-hslV, growth: N-lim chemostat, doubling time 6 h
# [2] = E. coli NCM3722 delta-clpP, growth: N-lim chemostat, doubling time 6 h
# [3] = E. coli NCM3722 delta-hslV, growth: N-lim chemostat, doubling time 6 h
# [4] = E. coli NCM3722 delta-lon, growth: N-lim chemostat, doubling time 6 h
# [5] = E. coli NCM3722 delta-smpB, growth: N-lim chemostat, doubling time 6 h
# [6] = wild type E. coli NCM3722, growth: C-lim chemostat, doubling time 3 h
# [7] = wild type E. coli NCM3722, growth: C-lim chemostat, doubling time 12 h
# [8] = wild type E. coli NCM3722, growth: N-lim chemostat, doubling time 6 h
# [9] = wild type E. coli NCM3722, growth: N-lim chemostat, doubling time 12 h
# [10] = wild type E. coli NCM3722, growth: P-lim chemostat, doubling time 6 h
# [11] = wild type E. coli NCM3722, growth: P-lim chemostat, doubling time 12 h
# [12] = wild type E. coli NCM3722, growth: C-lim chemostat, doubling time 6 h
Sequence,total protein half-life in vivo [1],total protein half-life in vivo [2],total protein half-life in vivo [3],total protein half-life in vivo [4],total protein half-life in vivo [5],total protein half-life in vivo [6],total protein half-life in vivo [7],total protein half-life in vivo [8],total protein half-life in vivo [9],total protein half-life in vivo [10],total protein half-life in vivo [11],total protein half-life in vivo [12]
MAIHNRAGQPAQQSDLINVAQLTAQYYVLKPEAGNAEHAVKFGTSGHRGSAARHSFNEPHILAIAQAIAEERAKNGITGPCYVGKDTHALSEPAFISVLEVLAANGVDVIVQENNGFTPTPAVSNAILVHNKKGGPLADGIVITPSHNPPEDGGIKYNPPNGGPADTNVTKVVEDRANALLADGLKGVKRISLDEAMASGHVKEQDLVQPFVEGLADIVDMAAIQKAGLTLGVDPLGGSGIEYWKRIGEYYNLNLTIVNDQVDQTFRFMHLDKDGAIRMDCSSECAMAGLLALRDKFDLAFANDPDYDRHGIVTPAGLMNPNHYLAVAINYLFQHRPQWGKDVAVGKTLVSSAMIDRVVNDLGRKLVEVPVGFKWFVDGLFDGSFGFGGEESAGASFLRFDGTPWSTDKDGIIMCLLAAEITAVTGKNPQEHYNELAKRFGAPSYNRLQAAATSAQKAALSKLSPEMVSASTLAGDPITARLTAAPGNGASIGGLKVMTDNGWFAARPSGTEDAYKIYCESFLGEEHRKQIEKEAVEIVSEVLKNA,5.51 ± 0.17 h,5.19 ± 0.29 h,5.82 ± 0.08 h,5.31 ± 0.31 h,5.64 ± 0.31 h,2.98 ± 0.16 h,9.719 ± 0.083 h,5.2 ± 0.099 h,9.34 ± 0.22 h,5.905 ± 0.033 h,11.6 ± 0.12 h,
MTRKQATIAVRSGLNDDEQYGCVVPPIHLSSTYNFTGFNEPRAHDYSRRGNPTRDVVQRALAELEGGAGAVLTNTGMSAIHLVTTVFLKPGDLLVAPHDCYGGSYRLFDSLAKRGCYRVLFVDQGDEQALRAALAEKPKLVLVESPSNPLLRVVDIAKICHLAREVGAVSVVDNTFLSPALQNPLALGADLVLHSCTKYLNGHSDVVAGVVIAKDPDVVTELAWWANNIGVTGGAFDSYLLLRGLRTLVPRMELAQRNAQAIVKYLQTQPLVKKLYHPSLPENQGHEIAARQQKGFGAMLSFELDGDEQTLRRFLGGLSLFTLAESLGGVESLISHAATMTHAGMAPEARAAAGISETLLRISTGIEDGEDLIADLENGFRAANKG,4.37 ± 0.79 h,4.07 ± 0.43 h,3.31 ± 0.36 h,4.53 ± 0.59 h,3.95 ± 0.28 h,3.1 ± 0.16 h,10 ± 0.44 h,3.56 ± 0.17 h,5.84 ± 0.7 h,5.83 ± 0.5 h,11.7 ± 1.1 h,4.98 ± 0.61 h
MNIELLQQLCEASAVSGDEQEVRDILINTLEPCVNEITFDGLGSFVARKGNKGPKVAVVGHMDEVGFMVTHIDESGFLRFTTIGGWWNQSMLNHRVTIRTHKGVKIPGVIGSVAPHALTEKQKQQPLSFDEMFIDIGANSREEVEKRGVEIGNFISPEANFACWGEDKVVGKALDNRIGCAMMAELLQTVNNPEITLYGVGSVEEEVGLRGAQTSAEHIKPDVVIVLDTAVAGDVPGIDNIKYPLKLGQGPGLMLFDKRYFPNQKLVAALKSCAAHNDLPLQFSTMKTGATDGGRYNVMGGGRPVVALCLPTRYLHANSGMISKADYEALLTLIRGFLTTLTAEKVNAFSQFRQVD,,,,3.4 h,3.85 ± 0.0073 h,2.53 h,,3.72 h,,4.06 h,9.711 ± 0.074 h,
MQVLPPSSTGGPSRLFIMRPVATTLLMVAILLAGIIGYRALPVSALPEVDYPTIQVVTLYPGASPDVMTSAVTAPLERQFGQMSGLKQMSSQSSGGASVITLQFQLTLPLDVAEQEVQAAINAATNLLPSDLPNPPVYSKVNPADPPIMTLAVTSTAMPMTQVEDMVETRVAQKISQISGVGLVTLSGGQRPAVRVKLNAQAIAALGLTSETVRTAITGANVNSAKGSLDGPSRAVTLSANDQMQSAEEYRQLIIAYQNGAPIRLGDVATVEQGAENSWLGAWANKEQAIVMNVQRQPGANIISTADSIRQMLPQLTESLPKSVKVTVLSDRTTNIRASVDDTQFELMMAIALVVMIIYLFLRNIPATIIPGVAVPLSLIGTFAVMVFLDFSINNLTLMALTIATGFVVDDAIVVIENISRYIEKGEKPLAAALKGAGEIGFTIISLTFSLIAVLIPLLFMGDIVGRLFREFAITLAVAILISAVVSLTLTPMMCARMLSQESLRKQNRFSRASEKMFDRIIAAYGRGLAKVLNHPWLTLSVALSTLLLSVLLWVFIPKGFFPVQDNGIIQGTLQAPQSSSFANMAQRQRQVADVILQDPAVQSLTSFVGVDGTNPSLNSARLQINLKPLDERDDRVQKVIARLQTAVDKVPGVDLFLQPTQDLTIDTQVSRTQYQFTLQATSLDALSTWVPQLMEKLQQLPQLSDVSSDWQDKGLVAYVNVDRDSASRLGISMADVDNALYNAFGQRLISTIYTQANQYRVVLEHNTENTPGLAALDTIRLTSSDGGVVPLSSIAKIEQRFAPLSINHLDQFPVTTISFNVPDNYSLGDAVQAIMDTEKTLNLPVDITTQFQGSTLAFQSALGSTVWLIVAAVVAMYIVLGILYESFIHPITILSTLPTAGVGALLALLIAGSELDVIAIIGIILLIGIVKKNAIMMIDFALAAEREQGMSPREAIYQACLLRFRPILMTTLAALLGALPLMLSTGVGAELRRPLGIGMVGGLIVSQVLTLFTTPVIYLLFDRLALWTKSRFARHEEEA,6.53 ± 0.31 h,6.24 ± 0.12 h,6.58 ± 0.74 h,6.07 ± 0.56 h,5.45 ± 0.45 h,2.98 h,,6.15 ± 0.94 h,13.1 ± 0.4 h,7.07 ± 0.49 h,12.347 ± 0.0014 h,6.17 ± 0.74 h
MPNIVLSRIDERLIHGQVGVQWVGFAGANLVLVANDEVAEDPVQQNLMEMVLAEGIAVRFWTLQKVIDNIHRAADRQKILLVCKTPADFLTLVKGGVPVNRINVGNMHYANGKQQIAKTVSVDAGDIAAFNDLKTAGVECFVQGVPTEPAVDLFKLL,,,,,,3.26 h,8.17 h,,,,,5.07 ± 0.6 h
MELATTQSVLMQIQPTIQRFARMLASVLQLEVEIVDENLCRVAGTGAYGKFLGRQLSGNSRLLRHVLETKTEKVVTQSRFDPLCEGCDSKENCREKAFLGTPVILQDRCVGVISLIAVTHEQQEHISDNLREFSDYVRHISTIFVSKLLEDQGPGDNISKIFATMIDNMDQGVLVVDDENRVQFVNQTALKTLGVVQNNIIGKPIRFRPLTFESNFTHGHMQHIVSWDDKSELIIGQLHNIQGRQLFLMAFHQSHTSFSVANAPDEPHIEQLVGECRVMRQLKRLISRIAPSPSSVMVVGESGTGKEVVARAIHKLSGRRNKPFIAINCAAIPEQLLESELFGYVKGAFTGASANGKTGLIQAANTGTLFLDEIGDMPLMLQAKLLRAIEAREILPIGASSPIQVDIRIISATNQNLAQFIAEGKFREDLFYRLNVIPITLPPLRERQEDIELLVHYFLHLHTRRLGSVYPGIAPDVVEILRKHRWPGNLRELSNLMEYLVNVVPSGEVIDSTLLPPNLLNNGTTEQSDVTEVSEAHLSLDDAGGTALEEMEKQMIREALSRHNSKKQVADELGIGIATLYRKIKKYELLNT,4.91 ± 0.062 h,,,,,1.46 ± 0.072 h,2.87 ± 0.29 h,,1.52 h,,2.56 h,2.41 ± 0.17 h
MTTNTVSRKVAWLRVVTLAVAAFIFNTTEFVPVGLLSDIAQSFHMQTAQVGIMLTIYAWVVALMSLPFMLMTSQVERRKLLICLFVVFIASHVLSFLSWSFTVLVISRIGVAFAHAIFWSITASLAIRMAPAGKRAQALSLIATGTALAMVLGLPLGRIVGQYFGWRMTFFAIGIGALITLLCLIKLLPLLPSEHSGSLKSLPLLFRRPALMSIYLLTVVVVTAHYTAYSYIEPFVQNIAGFSANFATALLLLLGGAGIIGSVIFGKLGNQYASALVSTAIALLLVCLALLLPAANSEIHLGVLSIFWGIAMMIIGLGMQVKVLALAPDATDVAMALFSGIFNIGIGAGALVGNQVSLHWSMSMIGYVGAVPAFAALIWSIIIFRRWPVTLEEQTQ,5.1 ± 0.12 h,4.77 h,4.16 h,,4.997 ± 0.0071 h,,,4.68 h,7.998 ± 0.022 h,5.12 ± 0.23 h,8.61 ± 0.96 h,
